# Assay results published in the RNAGym collection of RNA variant scans (doi:10.1073/pnas.2313332121).
# This sample holds only a part of the variants without activity.
# B1: TPR 5TU (parent)
# chain: GGAUCUUCUCGAUCUAACAAAAAAGACAAAUCUGCCACAAAGCUUGAGAGCAUCUUCGGAUGCAGAGGCGGCAGCCUUCGGUGGCGCGAUAGCGCCAACGUUCUCAACUAUGACACGCAAAACGCGUGCUCCGUUGAAUGGAGUUUAUCAUG
# Variants of: B1
# Test: polymerase ribozyme fitness, log enrichment relative to wild type (log ratio); higher = more active; in vitro selection for triplet polymerase activity
# Method in brief: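 Fitness is a logarithmic measure of how a genotype enriched relative to the wild type, with replicate averages weighted by inverse variance. The logarithm uses base 2, and enrichment came from Illumina sequencing of input and output libraries. Those libraries were PCR-built, transcribed mutants of each subunit of a heterodimeric triplet polymerase ribozyme, passed through one triplicate in vitro selection round that included frozen incubation at −7 °C, gel excision of extended constructs and streptavidin-bead capture. Genotypes were kept only if they had ≥10 input reads and ≥1 read per output.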
row,Variant,polymerase ribozyme fitness (log ratio)
1,U55G U148C,-2.46
2,U56A C95G A98G,-1.91
3,U55A G83U A137G,-2.28
4,U56C C103G C129U,-4.1
5,U55A U56A C57A C85U G86A C103G,≤ -4.2
6,U56A G92A A150G,-2.08
7,U55G G58U G62C C85U A137G,-3.31
8,U55A C93G,-3.83
9,U56A G58C G59C C76G,≤ -4.2
10,U55A C57A G59C G80U A91U,≤ -4.2
11,C57G A110U C123A,-4.11
12,U55A A91U C108A U130C G133U,≤ -4.2
13,U56A U139C,-3.15
14,U55A C87U A137C,-3.92
15,U56A G84A C105A C131U,-1.2
16,C57A A107U,-3.62
17,U55A A120U,-0.857
18,U56C C57A,0.0626
19,C57U A73G G74A C114G U135A U151G,≤ -4.2
20,U55A C85U C116G G133C,-1.34
21,U55A A98U U111C,-4.16

row,Variant,polymerase ribozyme fitness (log ratio)
1,U56A C57U C63U U101A U104C C108U,≤ -4.2
2,U56A C114G,-3.1
3,U56A U144C,0.537
4,U55G C116G,0.357
5,U56G A64C,≤ -4.2
6,U56A G94A A97U,-1.41
7,C57U C75G G81A C87G A120G,≤ -4.2
8,C57G C129G,-2.74
9,U55A A106G A113U G136C,≤ -4.2
10,U55A U127A A142U,≤ -4.2
11,U55C U82G C95U,-0.677
12,U55A C63G,0.923
13,U55C G59C A107C C131U U134G G136C,≤ -4.2
14,U55G A73U U146C,-1.74
15,U56A C76U C87U C129G A150C,≤ -4.2
16,U55A G71A G80C,≤ -4.2
17,U56A U78G G112C U139C,≤ -4.2
18,U56G G83A C87G A120U U135C,≤ -4.2
19,U56A C85A U101G G152C,-4.1
20,U55A G83A G126A,0.425
21,U56C A120C C149U,-1.17

row,Variant,polymerase ribozyme fitness (log ratio)
1,U55C C85A A119G A137U,≤ -4.2
2,U56A G84C A150G,-3.39
3,U55A G59A C116A,2.35
4,U55C C57G,0.125
5,U55G G94A A115G A122U U134C U139C G143A U148C,≤ -4.2
6,C57G U82A A91C A115G C125A C149A,≤ -4.2
7,U55A G62C G68U C96U A121U,≤ -4.2
8,U56A U61G U134G,-3.93
9,C57G C93U,-1.72
10,U55G A73G,-0.595
11,U56C C87U A110G,-3.04
12,U55A G58U C79U G88A A106G,≤ -4.2
13,U55A C79A,≤ -4.2
14,U55A C63U C85U C103A G136A A147U,-0.434
15,U55C C95A C96G G117C,-2.16
16,U55A C76G U134G,≤ -4.2
17,C57A C93A A106U A122U,-2.85
18,C57G C85A,-3.21
19,U55G G86U U145A,-0.475
20,U56G,-0.573
21,U56C,-0.389

row,Variant,polymerase ribozyme fitness (log ratio)
1,U56A,-0.324
2,U55C,0.0178
3,U55G,-0.284
4,U55A G65U G70U C87A C95U A98G A137C G141A G143C,≤ -4.2
5,U56A A137C,-3.11
6,C57A G94C,0.0611
7,C57A C132U,-0.393
8,C57A U145C,0.674
9,U56A G62A U78C G83U,-3.55
10,C57U A89U U101A C125U G141A U146A,≤ -4.2
11,U55A G84A A121U,-1.24
12,C57A G92C G133A,-4.05
13,C57G U61A G88A U104G,-4.19
14,U56A C87U U148A,-3.33
15,U55G C103A,-2.99
16,C57U A73G G143U U145G,≤ -4.2
17,C57A G59C,0.0811
18,U55A G59U C87U,-2.31
19,U56A U135A,-1.16
20,U55A G128C U146A,-4.09
